The text below walks through data of paper PMC7572642 (Journal of molecular biology, 2020).

The series concerns the molecule itself. Kind of series: crystal structure.

B1: chicken cone PDE6 GAFab regulatory domain (residues 42–458 of the chicken cone PDE6C catalytic subunit) (domain or fragment, UniProt P52731 42-458, looked up)
chain: GDVKEGVSFKDMSRLEECNILFELLTEIQDEAGSMEKIVHKTLQRLSQLLAADRCSMFICRSRNGIPEVATRLLNVTPTSKFEDNLVNPDKETVFPLDIGIAGWVAHTKKFFNIPDVKKNNHFSDYLDKKTGYTTVNMMAIPITQGKEVLAVVMALNKLNASEFSKEDEEVFKKYLNFISLVLRNHHTSYLYNIESRRSQMLLWSANKVFEELTDIERQFHKALYTIRMYLNCERYSVGLLDMTKEKEFYDEWPIRLGEAEPYKGPKTPDGREVNFYKIIDYILHGKEEIKVIPTPPADHWCLISGLPTYVAENGFICNMMNAPADEYFTFQKGPVDETGWVIKNVLSLPIVNKKEEIVGVATFYNRKDGKPFDEYDEQIIETLTQFLGWSVLNTDTYDKMNKLENRKDIAQEMLMY
On to B1, for which the binding result was “binds”.
